Data published in US20250262210A1 (TRUSTEES OF COLUMBIA UNIVERSITY IN THE CITY OF NEW YORK, published 2025).

What was measured:
Assay in all cases: IP/MS, LZTR1 R810W-FLAG, U87
WDR6 = molecular target: T1, WDR6 (human, UniProt Q9NNW5 1-1121)
T1 sequence (looked up): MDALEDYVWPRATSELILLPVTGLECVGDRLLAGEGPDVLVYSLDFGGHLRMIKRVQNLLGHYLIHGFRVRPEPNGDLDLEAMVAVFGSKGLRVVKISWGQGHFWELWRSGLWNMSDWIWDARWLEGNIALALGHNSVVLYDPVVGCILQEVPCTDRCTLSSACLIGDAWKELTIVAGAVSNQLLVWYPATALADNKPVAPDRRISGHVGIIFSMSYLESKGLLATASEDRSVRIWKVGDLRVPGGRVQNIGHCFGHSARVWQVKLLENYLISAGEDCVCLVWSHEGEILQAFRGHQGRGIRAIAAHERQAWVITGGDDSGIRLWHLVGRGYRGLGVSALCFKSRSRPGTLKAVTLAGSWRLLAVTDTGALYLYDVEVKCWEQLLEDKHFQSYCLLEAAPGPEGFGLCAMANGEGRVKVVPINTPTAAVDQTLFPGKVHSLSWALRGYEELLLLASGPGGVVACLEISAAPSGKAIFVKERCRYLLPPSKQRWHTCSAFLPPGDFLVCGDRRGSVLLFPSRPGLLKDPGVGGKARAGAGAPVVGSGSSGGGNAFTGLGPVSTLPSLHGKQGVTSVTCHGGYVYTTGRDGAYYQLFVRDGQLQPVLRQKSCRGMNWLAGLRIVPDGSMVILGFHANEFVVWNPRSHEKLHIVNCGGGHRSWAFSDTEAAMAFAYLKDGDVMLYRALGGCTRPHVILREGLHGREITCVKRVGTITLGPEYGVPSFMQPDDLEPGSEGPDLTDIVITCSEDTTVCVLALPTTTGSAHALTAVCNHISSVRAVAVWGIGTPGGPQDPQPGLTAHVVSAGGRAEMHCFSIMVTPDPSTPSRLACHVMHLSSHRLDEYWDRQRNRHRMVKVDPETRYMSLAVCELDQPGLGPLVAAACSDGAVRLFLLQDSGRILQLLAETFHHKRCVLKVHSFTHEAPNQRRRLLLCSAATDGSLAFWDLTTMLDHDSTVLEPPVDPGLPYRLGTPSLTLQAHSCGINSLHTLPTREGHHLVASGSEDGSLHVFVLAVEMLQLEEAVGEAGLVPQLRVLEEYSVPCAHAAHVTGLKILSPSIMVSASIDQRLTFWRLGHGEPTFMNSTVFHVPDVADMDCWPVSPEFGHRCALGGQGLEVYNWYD
Procedure, shortened: (§1)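 Read-out: spectral counts from LC-MS/MS (Orbitrap Fusion) after MaxQuant identification. Variable modifications were Met oxidation, protein N-terminal acetylation and N/Q deamidation.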

CRYBG1 = CRYBG1 (human, UniProt Q9Y4K1 1-2131, limits assumed)
Procedure, shortened: as §1

VPS18 = molecular target: T2, VPS18 (human, UniProt Q9P253 2-973)
T2 sequence (looked up): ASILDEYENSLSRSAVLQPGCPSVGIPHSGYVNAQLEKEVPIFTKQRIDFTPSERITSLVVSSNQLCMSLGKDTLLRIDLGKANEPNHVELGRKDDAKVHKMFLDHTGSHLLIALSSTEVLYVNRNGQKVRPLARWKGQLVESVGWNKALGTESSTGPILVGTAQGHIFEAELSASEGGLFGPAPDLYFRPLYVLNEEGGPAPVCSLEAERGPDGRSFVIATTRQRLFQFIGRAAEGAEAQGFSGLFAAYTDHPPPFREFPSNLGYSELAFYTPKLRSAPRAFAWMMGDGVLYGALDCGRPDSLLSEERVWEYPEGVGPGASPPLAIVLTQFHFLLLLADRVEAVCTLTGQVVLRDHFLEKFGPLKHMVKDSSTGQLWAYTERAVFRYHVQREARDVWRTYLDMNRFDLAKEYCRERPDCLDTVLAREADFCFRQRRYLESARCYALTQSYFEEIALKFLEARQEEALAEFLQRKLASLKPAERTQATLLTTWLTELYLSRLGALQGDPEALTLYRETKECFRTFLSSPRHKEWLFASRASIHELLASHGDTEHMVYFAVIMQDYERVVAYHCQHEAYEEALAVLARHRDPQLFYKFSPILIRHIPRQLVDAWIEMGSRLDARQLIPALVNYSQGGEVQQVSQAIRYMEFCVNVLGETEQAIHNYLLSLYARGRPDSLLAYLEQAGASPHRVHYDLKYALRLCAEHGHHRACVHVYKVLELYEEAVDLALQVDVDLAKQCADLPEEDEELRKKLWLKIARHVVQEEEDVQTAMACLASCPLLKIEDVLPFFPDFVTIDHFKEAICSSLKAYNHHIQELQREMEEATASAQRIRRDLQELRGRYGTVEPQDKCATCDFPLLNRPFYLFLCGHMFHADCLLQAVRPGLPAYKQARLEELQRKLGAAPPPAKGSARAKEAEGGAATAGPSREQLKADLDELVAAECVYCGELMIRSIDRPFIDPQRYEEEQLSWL
Procedure, shortened: as §1

BRCA2 = BRCA2 (human, UniProt P51587 1-3418)
Procedure, shortened: as §1

CDC42BPA = CDC42BPA (human, UniProt Q5VT25 1-1732, limits assumed)
Procedure, shortened: as §1

Measured: binding result

Chain of CDC42BPA (Q5VT25 whole entry): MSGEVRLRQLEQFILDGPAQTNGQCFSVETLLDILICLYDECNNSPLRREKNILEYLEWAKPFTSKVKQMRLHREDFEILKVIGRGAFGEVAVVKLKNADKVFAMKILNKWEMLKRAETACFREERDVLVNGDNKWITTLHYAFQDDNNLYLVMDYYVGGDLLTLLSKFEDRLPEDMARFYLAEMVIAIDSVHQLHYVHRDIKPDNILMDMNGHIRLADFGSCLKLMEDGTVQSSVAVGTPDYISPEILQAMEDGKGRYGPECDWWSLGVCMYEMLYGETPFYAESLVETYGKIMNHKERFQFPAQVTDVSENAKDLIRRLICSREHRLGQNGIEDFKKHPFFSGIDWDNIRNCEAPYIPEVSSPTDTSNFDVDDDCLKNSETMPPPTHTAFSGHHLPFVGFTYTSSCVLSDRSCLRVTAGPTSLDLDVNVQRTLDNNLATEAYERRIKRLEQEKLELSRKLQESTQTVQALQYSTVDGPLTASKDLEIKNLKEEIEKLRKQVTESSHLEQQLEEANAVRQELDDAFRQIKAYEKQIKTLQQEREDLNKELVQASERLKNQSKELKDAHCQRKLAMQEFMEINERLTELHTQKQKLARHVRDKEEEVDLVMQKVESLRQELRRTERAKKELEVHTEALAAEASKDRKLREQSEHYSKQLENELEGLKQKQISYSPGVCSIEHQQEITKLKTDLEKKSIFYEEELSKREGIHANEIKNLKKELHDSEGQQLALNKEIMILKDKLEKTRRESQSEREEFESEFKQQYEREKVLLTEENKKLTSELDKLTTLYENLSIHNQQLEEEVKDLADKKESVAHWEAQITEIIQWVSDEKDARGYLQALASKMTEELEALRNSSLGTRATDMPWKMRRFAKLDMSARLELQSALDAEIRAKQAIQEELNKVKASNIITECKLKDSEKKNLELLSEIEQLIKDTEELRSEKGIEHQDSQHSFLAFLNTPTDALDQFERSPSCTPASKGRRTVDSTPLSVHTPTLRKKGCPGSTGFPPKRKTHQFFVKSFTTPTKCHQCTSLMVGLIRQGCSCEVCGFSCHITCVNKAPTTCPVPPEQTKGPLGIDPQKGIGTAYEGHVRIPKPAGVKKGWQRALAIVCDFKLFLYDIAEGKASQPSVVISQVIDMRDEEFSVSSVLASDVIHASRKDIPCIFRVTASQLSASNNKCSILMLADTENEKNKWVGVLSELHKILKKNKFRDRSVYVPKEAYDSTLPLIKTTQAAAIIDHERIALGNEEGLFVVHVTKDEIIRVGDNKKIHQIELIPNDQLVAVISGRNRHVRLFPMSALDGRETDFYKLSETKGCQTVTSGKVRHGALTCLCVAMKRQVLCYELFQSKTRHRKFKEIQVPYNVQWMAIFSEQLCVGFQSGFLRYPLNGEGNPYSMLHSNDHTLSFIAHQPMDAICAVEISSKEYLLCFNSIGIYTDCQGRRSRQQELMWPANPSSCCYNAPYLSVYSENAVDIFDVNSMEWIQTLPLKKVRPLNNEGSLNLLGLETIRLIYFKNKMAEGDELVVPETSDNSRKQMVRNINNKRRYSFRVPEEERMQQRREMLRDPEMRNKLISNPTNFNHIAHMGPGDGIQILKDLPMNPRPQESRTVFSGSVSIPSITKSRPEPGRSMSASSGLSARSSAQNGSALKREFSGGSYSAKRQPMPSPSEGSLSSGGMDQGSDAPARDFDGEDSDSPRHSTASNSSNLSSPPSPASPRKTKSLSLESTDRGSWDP
Chain of BRCA2 (P51587 whole entry): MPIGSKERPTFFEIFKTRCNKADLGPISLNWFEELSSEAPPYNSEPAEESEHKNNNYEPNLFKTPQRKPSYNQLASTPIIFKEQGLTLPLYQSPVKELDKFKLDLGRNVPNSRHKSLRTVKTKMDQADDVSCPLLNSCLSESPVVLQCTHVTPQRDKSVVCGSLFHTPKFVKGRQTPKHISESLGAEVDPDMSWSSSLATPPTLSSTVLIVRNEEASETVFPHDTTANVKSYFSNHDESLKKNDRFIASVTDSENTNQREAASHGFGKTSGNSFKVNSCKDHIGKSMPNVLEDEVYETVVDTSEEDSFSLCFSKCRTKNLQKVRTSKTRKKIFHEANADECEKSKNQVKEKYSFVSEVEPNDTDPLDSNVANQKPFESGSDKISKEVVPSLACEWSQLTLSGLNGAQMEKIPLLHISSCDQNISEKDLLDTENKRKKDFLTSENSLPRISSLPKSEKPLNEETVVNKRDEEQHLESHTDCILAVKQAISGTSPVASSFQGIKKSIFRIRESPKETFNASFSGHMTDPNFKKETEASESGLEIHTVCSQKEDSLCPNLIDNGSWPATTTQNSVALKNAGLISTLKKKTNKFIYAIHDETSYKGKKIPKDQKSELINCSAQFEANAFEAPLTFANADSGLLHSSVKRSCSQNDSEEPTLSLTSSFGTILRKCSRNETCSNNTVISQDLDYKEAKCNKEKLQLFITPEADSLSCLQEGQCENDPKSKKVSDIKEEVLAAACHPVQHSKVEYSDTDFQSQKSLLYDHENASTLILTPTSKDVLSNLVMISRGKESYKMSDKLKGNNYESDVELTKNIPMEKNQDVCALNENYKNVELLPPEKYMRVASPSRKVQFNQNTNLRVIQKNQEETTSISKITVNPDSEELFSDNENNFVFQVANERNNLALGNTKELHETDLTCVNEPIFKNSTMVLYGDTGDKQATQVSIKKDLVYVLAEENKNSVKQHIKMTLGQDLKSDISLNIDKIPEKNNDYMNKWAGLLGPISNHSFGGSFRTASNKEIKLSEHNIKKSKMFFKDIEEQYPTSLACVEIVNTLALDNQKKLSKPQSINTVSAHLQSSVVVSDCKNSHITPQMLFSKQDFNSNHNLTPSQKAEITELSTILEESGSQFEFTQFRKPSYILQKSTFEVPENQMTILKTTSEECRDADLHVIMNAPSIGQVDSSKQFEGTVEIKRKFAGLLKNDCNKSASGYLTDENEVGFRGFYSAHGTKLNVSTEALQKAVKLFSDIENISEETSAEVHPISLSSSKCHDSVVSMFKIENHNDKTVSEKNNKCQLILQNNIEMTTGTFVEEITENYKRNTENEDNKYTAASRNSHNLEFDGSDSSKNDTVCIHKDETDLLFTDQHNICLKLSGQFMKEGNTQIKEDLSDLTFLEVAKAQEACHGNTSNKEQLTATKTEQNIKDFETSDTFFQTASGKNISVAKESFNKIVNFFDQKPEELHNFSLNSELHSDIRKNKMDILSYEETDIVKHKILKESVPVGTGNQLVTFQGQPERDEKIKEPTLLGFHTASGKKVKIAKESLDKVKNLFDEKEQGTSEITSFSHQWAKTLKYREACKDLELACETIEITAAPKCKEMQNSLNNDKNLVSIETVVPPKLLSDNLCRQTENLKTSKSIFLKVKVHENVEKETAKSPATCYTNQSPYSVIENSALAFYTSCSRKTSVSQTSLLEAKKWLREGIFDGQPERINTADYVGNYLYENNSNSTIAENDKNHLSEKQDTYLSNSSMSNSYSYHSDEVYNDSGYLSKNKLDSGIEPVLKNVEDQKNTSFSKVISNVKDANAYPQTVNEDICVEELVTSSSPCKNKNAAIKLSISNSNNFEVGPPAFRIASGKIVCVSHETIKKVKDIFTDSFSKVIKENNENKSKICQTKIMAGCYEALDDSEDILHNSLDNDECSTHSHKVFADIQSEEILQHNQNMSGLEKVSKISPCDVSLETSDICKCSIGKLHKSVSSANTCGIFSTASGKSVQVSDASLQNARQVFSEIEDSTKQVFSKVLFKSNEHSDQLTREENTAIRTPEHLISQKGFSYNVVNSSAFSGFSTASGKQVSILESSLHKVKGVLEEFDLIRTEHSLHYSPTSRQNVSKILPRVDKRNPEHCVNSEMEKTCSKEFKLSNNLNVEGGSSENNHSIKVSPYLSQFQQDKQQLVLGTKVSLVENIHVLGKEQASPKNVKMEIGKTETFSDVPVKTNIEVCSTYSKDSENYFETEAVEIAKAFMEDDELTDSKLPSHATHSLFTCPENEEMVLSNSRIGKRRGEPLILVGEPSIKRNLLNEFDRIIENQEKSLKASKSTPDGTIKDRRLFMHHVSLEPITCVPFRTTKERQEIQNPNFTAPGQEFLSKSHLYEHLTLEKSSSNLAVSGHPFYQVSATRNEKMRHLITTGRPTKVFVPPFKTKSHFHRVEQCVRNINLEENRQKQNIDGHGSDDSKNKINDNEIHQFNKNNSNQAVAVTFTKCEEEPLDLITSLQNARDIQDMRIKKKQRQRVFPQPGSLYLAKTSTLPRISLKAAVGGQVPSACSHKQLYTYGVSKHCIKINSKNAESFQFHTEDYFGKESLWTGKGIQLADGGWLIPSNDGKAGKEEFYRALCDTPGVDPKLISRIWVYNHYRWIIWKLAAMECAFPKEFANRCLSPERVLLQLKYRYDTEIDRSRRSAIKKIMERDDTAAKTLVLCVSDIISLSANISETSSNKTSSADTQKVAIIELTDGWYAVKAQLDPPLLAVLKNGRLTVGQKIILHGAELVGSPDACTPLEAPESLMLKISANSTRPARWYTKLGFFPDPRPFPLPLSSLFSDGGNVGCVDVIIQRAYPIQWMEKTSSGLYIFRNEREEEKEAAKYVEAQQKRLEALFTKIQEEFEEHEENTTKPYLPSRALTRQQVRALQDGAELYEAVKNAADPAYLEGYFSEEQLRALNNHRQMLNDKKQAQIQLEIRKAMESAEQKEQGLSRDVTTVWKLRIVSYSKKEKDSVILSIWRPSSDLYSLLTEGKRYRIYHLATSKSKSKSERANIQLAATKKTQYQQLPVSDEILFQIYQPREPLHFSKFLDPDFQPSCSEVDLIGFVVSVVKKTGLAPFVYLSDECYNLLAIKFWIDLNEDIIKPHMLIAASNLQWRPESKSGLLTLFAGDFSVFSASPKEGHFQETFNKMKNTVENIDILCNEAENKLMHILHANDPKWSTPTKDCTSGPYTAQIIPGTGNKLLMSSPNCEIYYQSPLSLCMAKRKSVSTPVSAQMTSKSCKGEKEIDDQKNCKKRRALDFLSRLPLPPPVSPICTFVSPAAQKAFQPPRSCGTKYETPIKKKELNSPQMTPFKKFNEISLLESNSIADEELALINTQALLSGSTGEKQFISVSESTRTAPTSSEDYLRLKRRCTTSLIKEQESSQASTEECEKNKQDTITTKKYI

B1: LZTR1 R810W-FLAG (other, human, UniProt Q8N653 1-840, looked up)
chain: MAGPGSTGGQIGAAALAGGARSKVAPSVDFDHSCSDSVEYLTLNFGPFETVHRWRRLPPCDEFVGARRSKHTVVAYKDAIYVFGGDNGKTMLNDLLRFDVKDCSWCRAFTTGTPPAPRYHHSAVVYGSSMFVFGGYTGDIYSNSNLKNKNDLFEYKFATGQWTEWKIEGRLPVARSAHGATVYSDKLWIFAGYDGNARLNDMWTIGLQDRELTCWEEVAQSGEIPPSCCNFPVAVCRDKMFVFSGQSGAKITNNLFQFEFKDKTWTRIPTEHLLRGSPPPPQRRYGHTMVAFDRHLYVFGGAADNTLPNELHCYDVDFQTWEVVQPSSDSEVGGAEVPERACASEEVPTLTYEERVGFKKSRDVFGLDFGTTSAKQPTQPASELPSGRLFHAAAVISDAMYIFGGTVDNNIRSGEMYRFQFSCYPKCTLHEDYGRLWESRQFCDVEFVLGEKEECVQGHVAIVTARSRWLRRKITQARERLAQKLEQEAAPVPREAPGVAAGGARPPLLHVAIREAEARPFEVLMQFLYTDKIKYPRKGHVEDVLLIMDVYKLALSFQLCRLEQLCRQYIEASVDLQNVLVVCESAARLQLSQLKEHCLNFVVKESHFNQVIMMKEFERLSSPLIVEIVRRKQQPPPRTPLDQPVDIGTSLIQDMKAYLEGAGAEFCDITLLLDGHPRPAHKAILAARSSYFEAMFRSFMPEDGQVNISIGEMVPSRQAFESMLRYIYYGEVNMPPEDSLYLFAAPYYYGFYNNRLQAYCKQNLEMNVTVQNVLQILEAADKTQALDMKRHCLHIIVHQFTKVSKLPTLWSLSQQLLLDIIDSLASHISDKQCAELGADI
notes: Stably expressed in U87 cells by lentivirus; also called LZTR1-FLAG-R810W; LZTR1 RW; not shown: FLAG tag
binds: all assays above
